{"source": "paper PMC4686002", "about": "(2015)", "key": {"[1]": {"molecular_target": "T1, FtsZ C-terminal tail peptide C-terminal tail peptide (Escherichia coli, UniProt P0A9A6)", "T1 chain": "KEPDYLDIPAFLRKQAD", "assay": "ITC"}, "[2]": {"molecular_target": "the molecule itself", "assay": "analytical ultracentrifugation (sedimentation velocity)"}}}
{"binder": "ZapC (protein) not shown", "values": [{"measurement": "Kd", "setting": "[1]", "value": 32, "unit": "µM"}, {"measurement": "Kd", "setting": "[2]", "value": "~30", "unit": "µM"}]}
